Results published in publication PMC10786891, “Massively parallel profiling of RNA-targeting CRISPR-Cas13d”.

Target: T1, EsCas13d, nuclease-dead (Eubacterium siraeum, UniProt B0MS50, R295A;H300A;R849A;H854A)
T1 sequence: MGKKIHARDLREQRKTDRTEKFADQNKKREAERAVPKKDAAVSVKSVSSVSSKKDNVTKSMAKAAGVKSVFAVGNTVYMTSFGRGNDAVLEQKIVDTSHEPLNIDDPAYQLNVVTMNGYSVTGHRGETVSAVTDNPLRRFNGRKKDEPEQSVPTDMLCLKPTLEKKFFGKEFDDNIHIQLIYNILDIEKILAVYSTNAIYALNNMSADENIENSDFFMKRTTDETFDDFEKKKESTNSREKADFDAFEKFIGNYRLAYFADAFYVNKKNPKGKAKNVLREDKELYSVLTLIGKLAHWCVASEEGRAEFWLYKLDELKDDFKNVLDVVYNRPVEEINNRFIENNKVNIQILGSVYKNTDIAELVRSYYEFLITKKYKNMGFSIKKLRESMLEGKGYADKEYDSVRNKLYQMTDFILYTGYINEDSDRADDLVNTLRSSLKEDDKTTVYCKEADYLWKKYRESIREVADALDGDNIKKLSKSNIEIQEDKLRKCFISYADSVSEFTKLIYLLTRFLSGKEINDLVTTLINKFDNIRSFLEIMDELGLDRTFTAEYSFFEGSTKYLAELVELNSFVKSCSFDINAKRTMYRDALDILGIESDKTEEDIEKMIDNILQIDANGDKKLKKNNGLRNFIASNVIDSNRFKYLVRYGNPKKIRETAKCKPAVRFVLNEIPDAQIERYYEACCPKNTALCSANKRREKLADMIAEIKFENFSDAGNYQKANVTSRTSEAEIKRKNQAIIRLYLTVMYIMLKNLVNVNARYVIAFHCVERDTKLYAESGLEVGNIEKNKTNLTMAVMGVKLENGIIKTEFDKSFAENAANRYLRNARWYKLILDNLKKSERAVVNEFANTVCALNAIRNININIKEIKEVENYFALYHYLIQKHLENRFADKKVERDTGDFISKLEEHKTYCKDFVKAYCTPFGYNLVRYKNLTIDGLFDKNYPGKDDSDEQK
Assay: crRNA (strand 1, pre-loaded); Mg2+; 40 mM Tris-HCl pH 7.5, 150 mM NaCl, 6 mM MgCl2, 1 mM DTT, 0.1% Tween-20, 0.2 mg/ml BSA; 25 C; 10 min per concentration, then washed
Conditions: tags: His6-TwinStrep-SUMO cleaved; N-terminal SNAP kept (SNAP-Surface 488); label: 3' end held by stalled T7 RNA polymerase

B1: target 1 U3A,G17U (mixed)
RNA 1: CACCCGUGCAAAAAUGCAGGGGUCUAAAACUGAGCGGAUAACCUCUCUAUGG
RNA 2: GGGAAUGGAUCCACAUCUACGAAUUCGUACCAUAUAGAGGUUAUCCGCACACCGAGAUCGGAAGAGCACACGU
- Kd: 25 ± 4 nM

B2: target 1 C6G,G15A (mixed)
RNA 1: CACCCGUGCAAAAAUGCAGGGGUCUAAAACUGAGCGGAUAACCUCUCUAUGG
RNA 2: GGGAAUGGAUCCACAUCUACGAAUUCGUACCAUAGAAAGGUUAUCGGCUCACCGAGAUCGGAAGAGCACACGU
- Kd: 14.4 ± 0.8 nM

B3: target 1 U3A,C22A (mixed)
RNA 1: CACCCGUGCAAAAAUGCAGGGGUCUAAAACUGAGCGGAUAACCUCUCUAUGG
RNA 2: GGGAAUGGAUCCACAUCUACGAAUUCGUAACAUAGAGAGGUUAUCCGCACACCGAGAUCGGAAGAGCACACGU
- Kd: 60 ± 17 nM

B4: target 1 insU 3' of 15,insC 3' of 5 (mixed)
RNA 1: CACCCGUGCAAAAAUGCAGGGGUCUAAAACUGAGCGGAUAACCUCUCUAUGG
RNA 2: GGGAAUGGAUCCACAUCUACGAAUUCGUACCAUAGAGUAGGUUAUCCGCCUCACCGAGAUCGGAAGAGCACACGU
- Kd: 16.9 ± 2.2 nM

B5: target 1 U8A,C21A (mixed)
RNA 1: CACCCGUGCAAAAAUGCAGGGGUCUAAAACUGAGCGGAUAACCUCUCUAUGG
RNA 2: GGGAAUGGAUCCACAUCUACGAAUUCGUACAAUAGAGAGGUUAACCGCUCACCGAGAUCGGAAGAGCACACGU
- Kd: 55 ± 9 nM

B6: target 1 insU 3' of 2 (mixed)
RNA 1: CACCCGUGCAAAAAUGCAGGGGUCUAAAACUGAGCGGAUAACCUCUCUAUGG
RNA 2: GGGAAUGGAUCCACAUCUACGAAUUCGUACCAUAGAGAGGUUAUCCGCUCUACCGAGAUCGGAAGAGCACACGU
- Kd: 9.7 ± 0.8 nM

B7: target 1 A14G,A16G (mixed)
RNA 1: CACCCGUGCAAAAAUGCAGGGGUCUAAAACUGAGCGGAUAACCUCUCUAUGG
RNA 2: GGGAAUGGAUCCACAUCUACGAAUUCGUACCAUAGGGGGGUUAUCCGCUCACCGAGAUCGGAAGAGCACACGU
- Kd: 34.8 ± 2.2 nM

B8: target 1 insG 3' of 8,insG 3' of 1 (mixed)
RNA 1: CACCCGUGCAAAAAUGCAGGGGUCUAAAACUGAGCGGAUAACCUCUCUAUGG
RNA 2: GGGAAUGGAUCCACAUCUACGAAUUCGUACCAUAGAGAGGUUAUGCCGCUCAGCCGAGAUCGGAAGAGCACACGU
- Kd: 13.4 ± 0.7 nM

B9: target 1 complement block 5-8 (mixed)
RNA 1: CACCCGUGCAAAAAUGCAGGGGUCUAAAACUGAGCGGAUAACCUCUCUAUGG
RNA 2: GGGAAUGGAUCCACAUCUACGAAUUCGUACCAUAGAGAGGUUAAGGCCUCACCGAGAUCGGAAGAGCACACGU
- Kd: 14.7 ± 0.8 nM

B10: target 1 U10A,A18U (mixed)
RNA 1: CACCCGUGCAAAAAUGCAGGGGUCUAAAACUGAGCGGAUAACCUCUCUAUGG
RNA 2: GGGAAUGGAUCCACAUCUACGAAUUCGUACCAUUGAGAGGUAAUCCGCUCACCGAGAUCGGAAGAGCACACGU
- Kd: 43 ± 4 nM

B11: target 1 A9U,A14G (mixed)
RNA 1: CACCCGUGCAAAAAUGCAGGGGUCUAAAACUGAGCGGAUAACCUCUCUAUGG
RNA 2: GGGAAUGGAUCCACAUCUACGAAUUCGUACCAUAGAGGGGUUUUCCGCUCACCGAGAUCGGAAGAGCACACGU
- Kd: 17.7 ± 1.2 nM

B12: target 1 insA 3' of 8 (mixed)
RNA 1: CACCCGUGCAAAAAUGCAGGGGUCUAAAACUGAGCGGAUAACCUCUCUAUGG
RNA 2: GGGAAUGGAUCCACAUCUACGAAUUCGUACCAUAGAGAGGUUAUACCGCUCACCGAGAUCGGAAGAGCACACGU
- Kd: 15.7 ± 1 nM

B13: target 1 U10A,G15U (mixed)
RNA 1: CACCCGUGCAAAAAUGCAGGGGUCUAAAACUGAGCGGAUAACCUCUCUAUGG
RNA 2: GGGAAUGGAUCCACAUCUACGAAUUCGUACCAUAGAUAGGUAAUCCGCUCACCGAGAUCGGAAGAGCACACGU
- Kd: 56 ± 13 nM

B14: target 1 insU 3' of 20,insA 3' of 13 (mixed)
RNA 1: CACCCGUGCAAAAAUGCAGGGGUCUAAAACUGAGCGGAUAACCUCUCUAUGG
RNA 2: GGGAAUGGAUCCACAUCUACGAAUUCGUACCAUUAGAGAGAGUUAUCCGCUCACCGAGAUCGGAAGAGCACACGU
- Kd: 8.4 ± 1.2 nM

B15: target 1 insC 3' of 22,insA 3' of 7 (mixed)
RNA 1: CACCCGUGCAAAAAUGCAGGGGUCUAAAACUGAGCGGAUAACCUCUCUAUGG
RNA 2: GGGAAUGGAUCCACAUCUACGAAUUCGUACCCAUAGAGAGGUUAUCACGCUCACCGAGAUCGGAAGAGCACACGU
- Kd: 17.6 ± 2.5 nM

B16: target 1 insC 3' of 20,insA 3' of 12 (mixed)
RNA 1: CACCCGUGCAAAAAUGCAGGGGUCUAAAACUGAGCGGAUAACCUCUCUAUGG
RNA 2: GGGAAUGGAUCCACAUCUACGAAUUCGUACCACUAGAGAGGAUUAUCCGCUCACCGAGAUCGGAAGAGCACACGU
- Kd: 9 ± 0.5 nM

B17: target 1 insA 3' of 22,insU 3' of 15 (mixed)
RNA 1: CACCCGUGCAAAAAUGCAGGGGUCUAAAACUGAGCGGAUAACCUCUCUAUGG
RNA 2: GGGAAUGGAUCCACAUCUACGAAUUCGUACACAUAGAGUAGGUUAUCCGCUCACCGAGAUCGGAAGAGCACACGU
- Kd: 19 ± 1.8 nM

B18: target 1 insA 3' of 21,insA 3' of 6 (mixed)
RNA 1: CACCCGUGCAAAAAUGCAGGGGUCUAAAACUGAGCGGAUAACCUCUCUAUGG
RNA 2: GGGAAUGGAUCCACAUCUACGAAUUCGUACCAAUAGAGAGGUUAUCCAGCUCACCGAGAUCGGAAGAGCACACGU
- Kd: 22.1 ± 2.3 nM

B19: target 1 insC 3' of 20,insA 3' of 13 (mixed)
RNA 1: CACCCGUGCAAAAAUGCAGGGGUCUAAAACUGAGCGGAUAACCUCUCUAUGG
RNA 2: GGGAAUGGAUCCACAUCUACGAAUUCGUACCACUAGAGAGAGUUAUCCGCUCACCGAGAUCGGAAGAGCACACGU
- Kd: 4.7 ± 0.4 nM

B20: target 1 insC 3' of 11,insG 3' of 3 (mixed)
RNA 1: CACCCGUGCAAAAAUGCAGGGGUCUAAAACUGAGCGGAUAACCUCUCUAUGG
RNA 2: GGGAAUGGAUCCACAUCUACGAAUUCGUACCAUAGAGAGGUCUAUCCGCUGCACCGAGAUCGGAAGAGCACACGU
- Kd: 24.9 ± 1.4 nM

B21: target 1 U3C,C6G (mixed)
RNA 1: CACCCGUGCAAAAAUGCAGGGGUCUAAAACUGAGCGGAUAACCUCUCUAUGG
RNA 2: GGGAAUGGAUCCACAUCUACGAAUUCGUACCAUAGAGAGGUUAUCGGCCCACCGAGAUCGGAAGAGCACACGU
- Kd: 12.1 ± 0.7 nM

B22: target 1 insG 3' of 22 (mixed)
RNA 1: CACCCGUGCAAAAAUGCAGGGGUCUAAAACUGAGCGGAUAACCUCUCUAUGG
RNA 2: GGGAAUGGAUCCACAUCUACGAAUUCGUACGCAUAGAGAGGUUAUCCGCUCACCGAGAUCGGAAGAGCACACGU
- Kd: 31 ± 2.8 nM

B23: target 1 insA 3' of 15,insG 3' of 4 (mixed)
RNA 1: CACCCGUGCAAAAAUGCAGGGGUCUAAAACUGAGCGGAUAACCUCUCUAUGG
RNA 2: GGGAAUGGAUCCACAUCUACGAAUUCGUACCAUAGAGAAGGUUAUCCGCGUCACCGAGAUCGGAAGAGCACACGU
- Kd: 6.4 ± 0.6 nM

B24: target 1 C4G,G17U (mixed)
RNA 1: CACCCGUGCAAAAAUGCAGGGGUCUAAAACUGAGCGGAUAACCUCUCUAUGG
RNA 2: GGGAAUGGAUCCACAUCUACGAAUUCGUACCAUAUAGAGGUUAUCCGGUCACCGAGAUCGGAAGAGCACACGU
- Kd: 39 ± 12 nM

B25: target 1 insC 3' of 20,insG 3' of 14 (mixed)
RNA 1: CACCCGUGCAAAAAUGCAGGGGUCUAAAACUGAGCGGAUAACCUCUCUAUGG
RNA 2: GGGAAUGGAUCCACAUCUACGAAUUCGUACCACUAGAGAGGGUUAUCCGCUCACCGAGAUCGGAAGAGCACACGU
- Kd: 10.1 ± 0.8 nM

B26: target 1 insU 3' of 12,insU 3' of 4 (mixed)
RNA 1: CACCCGUGCAAAAAUGCAGGGGUCUAAAACUGAGCGGAUAACCUCUCUAUGG
RNA 2: GGGAAUGGAUCCACAUCUACGAAUUCGUACCAUAGAGAGGUUUAUCCGCUUCACCGAGAUCGGAAGAGCACACGU
- Kd: 5.68 ± 0.27 nM

B27: target 1 insC 3' of 20,insG 3' of 3 (mixed)
RNA 1: CACCCGUGCAAAAAUGCAGGGGUCUAAAACUGAGCGGAUAACCUCUCUAUGG
RNA 2: GGGAAUGGAUCCACAUCUACGAAUUCGUACCACUAGAGAGGUUAUCCGCUGCACCGAGAUCGGAAGAGCACACGU
- Kd: 8.3 ± 0.5 nM

B28: target 1 G12A,G17U (mixed)
RNA 1: CACCCGUGCAAAAAUGCAGGGGUCUAAAACUGAGCGGAUAACCUCUCUAUGG
RNA 2: GGGAAUGGAUCCACAUCUACGAAUUCGUACCAUAUAGAGAUUAUCCGCUCACCGAGAUCGGAAGAGCACACGU
- Kd: 18.9 ± 1.4 nM
